The experiment concerns the target T1, Human MAdCAM (human, UniProt Q13477 19-317, limits assumed).
T1 construct: also called huMAdCAM; human MAdCAM-1
T1 sequence (looked up): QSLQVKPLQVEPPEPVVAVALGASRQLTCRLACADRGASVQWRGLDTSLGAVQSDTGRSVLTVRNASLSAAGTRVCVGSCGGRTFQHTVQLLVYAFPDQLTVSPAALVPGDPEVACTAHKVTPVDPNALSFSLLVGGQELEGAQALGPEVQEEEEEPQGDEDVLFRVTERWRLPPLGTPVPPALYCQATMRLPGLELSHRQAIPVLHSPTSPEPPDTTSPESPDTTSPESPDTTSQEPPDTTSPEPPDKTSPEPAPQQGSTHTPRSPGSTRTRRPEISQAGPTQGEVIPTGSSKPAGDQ
Description: BLI Octet, AHC capture. In general terms: In BLI a coated tip is dipped into the sample, and binding shifts an interference pattern.

B1: PMAB21 (bispecific antibody, human IgG1, kappa)
heavy: EVQLLESGGGLVQPGGSLRLSCAASGFTFSNSDMSWVRQAPGKGLEWVSGITISGGSTYYADSVKGRFTISRDNSKNTLYLQMNSLRAEDTAVYYCARGRGGSGWLDYWGQGTLVTVSSASTKGPSVFPLAPSSKSTSGGTAALGCLVKDYFPEPVTVSWNSGALTSGVHTFPAVLQSSGLYSLSSVVTVPSSSLGTQTYICNVNHKPSNTKVDKKVEPKSCDKTHTCPPCPAPEAAGAPSVFLFPPKPKDTLMISRTPEVTCVVVDVSHEDPEVKFNWYVDGVEVHNAKTKPREEQYNSTYRVVSVLTVLHQDWLNGKEYKCKVSNKALPAPIEKTISKAKGQPREPQVYTLPPSREEMTKNQVSLTCLVKGFYPSDIAVEWESNGQPENNYKTTPPVLDSDGSFFLYSKLTVDKSRWQQGNVFSCSVMHEALHNHYTQKSLSLSPGGGGGSGGGGSGGGGSEVQLLESGGGLVQPGGSLRLSCAASGFTFSDFAMHWVRQAPGKGLEWISYISGDSGYTNYADSVKGRFTISRDNSKNTLYLQMNSLRAEDTAVYYCARDRPYYYYMDVWGKGTTVTVSSGGGGSGGGGSGGGGSGGGGSDIQMTQSPSSLSASVGDRVTITCRASQSVSRSLAWYQQKPGKAPKLLIYAASSLQSGVPSRFSGSGSGTDFTLTISSLQPEDFATYYCQQYKSYPVTFGQGTKVEIK
light: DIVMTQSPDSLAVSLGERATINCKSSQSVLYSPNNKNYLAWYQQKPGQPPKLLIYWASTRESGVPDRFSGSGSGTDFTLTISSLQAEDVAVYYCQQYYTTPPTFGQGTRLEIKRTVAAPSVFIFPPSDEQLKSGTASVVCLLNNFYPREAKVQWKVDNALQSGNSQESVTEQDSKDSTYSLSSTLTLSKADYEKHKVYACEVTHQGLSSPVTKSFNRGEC
For the molecule B1, the binding result is “no binding (tested: 300 nM top concentration)”.

B2: PMAB39 (bispecific antibody, human IgG1, kappa)
heavy: EVQLLESGGGLVQPGGSLRLSCAASGFTFSNSDMSWVRQAPGKGLEWVSGITISGGSTYYADSVKGRFTISRDNSKNTLYLQMNSLRAEDTAVYYCARGRGGSGWLDYWGQGTLVTVSSASTKGPSVFPLAPSSKSTSGGTAALGCLVKDYFPEPVTVSWNSGALTSGVHTFPAVLQSSGLYSLSSVVTVPSSSLGTQTYICNVNHKPSNTKVDKKVEPKSCDKTHTCPPCPAPEAAGAPSVFLFPPKPKDTLMISRTPEVTCVVVDVSHEDPEVKFNWYVDGVEVHNAKTKPREEQYNSTYRVVSVLTVLHQDWLNGKEYKCKVSNKALPAPIEKTISKAKGQPREPQVYTLPPSREEMTKNQVSLTCLVKGFYPSDIAVEWESNGQPENNYKTTPPVLDSDGSFFLYSKLTVDKSRWQQGNVFSCSVMHEALHNHYTQKSLSLSPGGGGGSGGGGSGGGGSEVQLLESGGGLVQPGGSLRLSCAASGFTFSDFWMHWVRQAPGKGLEWISYISGDSGYTNYADSVKGRFTISRDNSKNTLYLQMNSLRAEDTAVYYCARDRPYYYYMDVWGKGTTVTVSSGGGGSGGGGSGGGGSGGGGSDIQMTQSPSSLSASVGDRVTITCRASQSVSRSLNWYQQKPGKAPKLLIYAASSLQSGVPSRFSGSGSGTDFTLTISSLQPEDFATYYCQQYKSYPVTFGQGTKVEIK
light: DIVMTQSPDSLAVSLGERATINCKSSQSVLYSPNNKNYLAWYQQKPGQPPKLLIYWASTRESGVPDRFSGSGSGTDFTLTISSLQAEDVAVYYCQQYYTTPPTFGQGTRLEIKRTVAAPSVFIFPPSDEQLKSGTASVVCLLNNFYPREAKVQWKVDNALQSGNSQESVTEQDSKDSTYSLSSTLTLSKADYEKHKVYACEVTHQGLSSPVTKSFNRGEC
On to B2, for which the binding result is recorded as “no binding (tested: 200 nM top concentration)”.

B3: PMAB43 (bispecific antibody, human IgG1, kappa)
heavy: EVQLLESGGGLVQPGGSLRLSCAASGFTFSNSDMSWVRQAPGKGLEWVSGITISGGSTYYADSVKGRFTISRDNSKNTLYLQMNSLRAEDTAVYYCARGRGGSGWLDYWGQGTLVTVSSASTKGPSVFPLAPSSKSTSGGTAALGCLVKDYFPEPVTVSWNSGALTSGVHTFPAVLQSSGLYSLSSVVTVPSSSLGTQTYICNVNHKPSNTKVDKKVEPKSCDKTHTCPPCPAPEAAGAPSVFLFPPKPKDTLMISRTPEVTCVVVDVSHEDPEVKFNWYVDGVEVHNAKTKPREEQYNSTYRVVSVLTVLHQDWLNGKEYKCKVSNKALPAPIEKTISKAKGQPREPQVYTLPPSREEMTKNQVSLTCLVKGFYPSDIAVEWESNGQPENNYKTTPPVLDSDGSFFLYSKLTVDKSRWQQGNVFSCSVMHEALHNHYTQKSLSLSPGGGGGSGGGGSGGGGSEVQLLESGGGLVQPGGSLRLSCAASGFTFSDFWMHWVRQAPGKGLEWISYISGDSGYTNYADSVKGRFTISRDNSKNTLYLQMNSLRAEDTAVYYCARDRPYYYYMDVWGKGTTVTVSSGGGGSGGGGSGGGGSGGGGSDIQMTQSPSSLSASVGDRVTITCRASQSVSRSLAWYQQKPGKAPKLLIYAASSLQSGVPSRFSGSGSGTDFTLTISSLQPEDFATYYCQQYKSYPRTFGQGTKVEIK
light: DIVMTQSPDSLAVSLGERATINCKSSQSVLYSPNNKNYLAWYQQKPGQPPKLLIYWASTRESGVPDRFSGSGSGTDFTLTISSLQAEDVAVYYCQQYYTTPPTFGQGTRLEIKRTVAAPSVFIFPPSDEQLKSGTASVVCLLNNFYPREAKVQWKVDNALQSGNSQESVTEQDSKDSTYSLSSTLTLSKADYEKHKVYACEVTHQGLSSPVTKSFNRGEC
Consider B3, for which the binding result was “no binding (tested: 200 nM top concentration)”.

B4: PMAB38 (bispecific antibody, human IgG1, kappa)
heavy: EVQLLESGGGLVQPGGSLRLSCAASGFTFSNSDMSWVRQAPGKGLEWVSGITISGGSTYYADSVKGRFTISRDNSKNTLYLQMNSLRAEDTAVYYCARGRGGSGWLDYWGQGTLVTVSSASTKGPSVFPLAPSSKSTSGGTAALGCLVKDYFPEPVTVSWNSGALTSGVHTFPAVLQSSGLYSLSSVVTVPSSSLGTQTYICNVNHKPSNTKVDKKVEPKSCDKTHTCPPCPAPEAAGAPSVFLFPPKPKDTLMISRTPEVTCVVVDVSHEDPEVKFNWYVDGVEVHNAKTKPREEQYNSTYRVVSVLTVLHQDWLNGKEYKCKVSNKALPAPIEKTISKAKGQPREPQVYTLPPSREEMTKNQVSLTCLVKGFYPSDIAVEWESNGQPENNYKTTPPVLDSDGSFFLYSKLTVDKSRWQQGNVFSCSVMHEALHNHYTQKSLSLSPGGGGGSGGGGSGGGGSEVQLLESGGGLVQPGGSLRLSCAASGFTFSDFWMHWVRQAPGKGLEWISYISGDSGYTNYADSVKGRFTISRDNSKNTLYLQMNSLRAEDTAVYYCARDRPYYYYMDVWGKGTTVTVSSGGGGSGGGGSGGGGSGGGGSDIQMTQSPSSLSASVGDRVTITCRASQSVSRYLAWYQQKPGKAPKLLIYAASSLQSGVPSRFSGSGSGTDFTLTISSLQPEDFATYYCQQYKSYPVTFGQGTKVEIK
light: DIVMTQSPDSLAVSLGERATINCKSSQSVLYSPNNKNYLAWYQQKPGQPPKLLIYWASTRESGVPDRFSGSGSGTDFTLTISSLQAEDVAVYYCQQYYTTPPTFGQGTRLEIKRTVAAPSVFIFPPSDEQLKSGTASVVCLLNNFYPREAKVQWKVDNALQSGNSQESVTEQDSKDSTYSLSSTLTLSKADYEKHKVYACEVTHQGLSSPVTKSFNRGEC
For B4, the binding result was “no binding (tested: 200 nM top concentration)”.

B5: MIAB133 (antibody, human IgG1, kappa)
heavy: EVQLLESGGGLVQPGGSLRLSCAASGFTFSSFWMHWVRQAPGKGLEWISYISGDSGYTNYADSVKGRFTISRDNSKNTLYLQMNSLRAEDTAVYYCARDRPYYYYMDVWGKGTTVTVSSASTKGPSVFPLAPSSKSTSGGTAALGCLVKDYFPEPVTVSWNSGALTSGVHTFPAVLQSSGLYSLSSVVTVPSSSLGTQTYICNVNHKPSNTKVDKKVEPKSCDKTHTCPPCPAPEAAGAPSVFLFPPKPKDTLMISRTPEVTCVVVDVSHEDPEVKFNWYVDGVEVHNAKTKPREEQYNSTYRVVSVLTVLHQDWLNGKEYKCKVSNKALPAPIEKTISKAKGQPREPQVYTLPPSREEMTKNQVSLTCLVKGFYPSDIAVEWESNGQPENNYKTTPPVLDSDGSFFLYSKLTVDKSRWQQGNVFSCSVMHEALHNHYTQKSLSLSPGGGGGSAPTSSSTKKTQLQLEHLLLDLQMILNGINNYKNPKLTRMLTFKFYMPKKATELKHLQCLEEELKPLEEALNLAPSKNFHLRPRDLISDINVIVLELKGSETTFMCEYADETATIVEFINRWITFSQSIISTLT
light: DIQMTQSPSSLSASVGDRVTITCRASQSVSRSLAWYQQKPGKAPKLLIYAASSLQSGVPSRFSGSGSGTDFTLTISSLQPEDFATYYCQQYKSYPVTFGQGTKVEIKRTVAAPSVFIFPPSDEQLKSGTASVVCLLNNFYPREAKVQWKVDNALQSGNSQESVTEQDSKDSTYSLSSTLTLSKADYEKHKVYACEVTHQGLSSPVTKSFNRGEC
notes: also called MIAB133-001
B5 yielded a Kd of 20 nM, a koff of 0.0113 s⁻¹ and a kon of 564000 M⁻¹ s⁻¹.

By Kd is commonly meant the constant that tells how readily two partners part at equilibrium. By koff is commonly meant the first-order rate constant of dissociation. Read a high koff as fast dissociation. The term kon denotes a measure of how fast the partners come together. Higher therefore signals faster complex formation.

These data come from patent US20240132591A1 (PANDION OPERATIONS, published 2024).
